Data as given in patent publication US12099068B2, “Biomarkers for graft-versus-host disease” (Incyte Corporation, priority 2018, dated 2024).

Test system: plasma proteins
Test: Plasma proteins modulated between baseline and day 28 in responders (CR, VGPR, PR; n = 19), Example 6 (Table 13)
Type: in vivo, human
Settings: plasma protein (OLINK NPX); responders (CR, VGPR, PR; n = 19); itacitinib 200 mg or 300 mg QD with corticosteroids; day 28 vs baseline
Protocol: Due to the limited sample size, steroid-naive (N=10) and steroid-refractory (N=18) patients were combined for further analysis. Broad proteomic analysis of over 1000 proteins was conducted by OLINK Proteomics (Watertown, MA) using a proximity extension assay as described by the manufacturer. Data are presented as normalized protein expression (NPX) in log 2 scale. Statistical differences were evaluated using unpaired and paired t tests, one-way […] (ANOVA), and Pearson Correlation. Significance was conferred when P<0.05.
Longitudinal differences in protein expression were analyzed by evaluating plasma samples from baseline/screening and day 28.

| Molecule | Fold Change, Increased Expression from Baseline to Day 28 | Fold Change, Decreased Expression from Baseline to Day 28 |
| --- | --- | --- |
| SMOC2 (protein, UniProt Q9H3U7 22-446, looked up) SPARC-related modular …: QKFSALTFLRVDQDKDKDCSLDCAGSPQKPLCASDGRTFLSRCEFQRAKCKDPQLEIAYRGNCKDVSRCVAERKYTQEQARKEFQQVFIPECNDDGTYSQVQCHSYTGYCWCVTPNGRPISGTAVAHKTPRCPGSVNEKLPQREGTGKTDDAAAPALETQPQGDEEDIASRYPTLWTEQVKSRQNKTNKNSVSSCDQEHQSALEEAKQPKNDNVVIPECAHGGLYKPVQCHPSTGYCWCVLVDTGRPIPGTSTRYEQPKCDNTARAHPAKARDLYKGRQLQGCPGAKKHEFLTSVLDALSTDMVHAASDPSSSSGRLSEPDPSHTLEERVVHWYFKLLDKNSSGDIGKKEIKPFKRFLRKKSKPKKCVKKFVEYCDVNNDKSISVQELMGCLGVAKEDGKADTKKRHTPRGHAESTSNRQPRKQG | 1.2842 | – |
| DFFA (protein, UniProt O00273 1-331, looked up) DNA fragmentation factor …: MEVTGDAGVPESGEIRTLKPCLLRRNYSREQHGVAASCLEDLRSKACDILAIDKSLTPVTLVLAEDGTIVDDDDYFLCLPSNTKFVALASNEKWAYNNSDGGTAWISQESFDVDETDSGAGLKWKNVARQLKEDLSSIILLSEEDLQMLVDAPCSDLAQELRQSCATVQRLQHTLQQVLDQREEVRQSKQLLQLYLQALEKEGSLLSKQEESKAAFGEEVDAVDTGISRETSSDVALASHILTALREKQAPELSLSSQDLELVTKEDPKALAVALNWDIKKTETVQEACERELALRLQQTQSLHSLRSISASKASPPGDLQNPKRARQDPT | – | −1.31 |
| PPP1R2 (protein, UniProt P41236 2-205, looked up) Protein phosphatase inhibitor …: AASTASHRPIKGILKNKTSTTSSMVASAEQPRGNVDEELSKKSQKWDEMNILATYHPADKDYGLMKIDEPSTPYHSMMGDDEDACSDTEATEAMAPDILARKLAAAEGLEPKYRIQEQESSGEEDSDLSPEEREKKRQFEMKRKLHYNEGLNIKLARQLISKDLHDDDEDEEMLETADGESMNTEESNQGSTPSDQQQNKLRSS | – | −1.3339 |
| ANG-1 (protein, UniProt Q15389 16-498, looked up) Angiopoietin-1: HIGCSNQRRSPENSGRRYNRIQHGQCAYTFILPEHDGNCRESTTDQYNTNALQRDAPHVEPDFSSQKLQHLEHVMENYTQWLQKLENYIVENMKSEMAQIQQNAVQNHTATMLEIGTSLLSQTAEQTRKLTDVETQVLNQTSRLEIQLLENSLSTYKLEKQLLQQTNEILKIHEKNSLLEHKILEMEGKHKEELDTLKEEKENLQGLVTRQTYIIQELEKQLNRATTNNSVLQKQQLELMDTVHNLVNLCTKEGVLLKGGKREEEKPFRDCADVYQAGFNKSGIYTIYINNMPEPKKVFCNMDVNGGGWTVIQHREDGSLDFQRGWKEYKMGFGNPSGEYWLGNEFIFAITSQRQYMLRIELMDWEGNRAYSQYDRFHIGNEKQNYRLYLKGHTGTAGKQSSLILHGADFSTKDADNDNCMCKCALMLTGGWWFDACGPSNLNGMFYTAGQNHGKLNGIKWHYFKGPSYSLRSTTMMIRPLDF | – | −1.7898 |
| CCL5 (protein, UniProt P13501 24-91, looked up) C-C motif chemokine 5: SPYSSDTTPCCFAYIARPLPRAHIKEYFYTSGKCSNPAVVFVTRKNRQVCANPEKKWVREYINSLEMS | – | −1.6357 |
| MAP2K6 (protein, UniProt P52564 1-334, looked up) Dual specificity …: MSQSKGKKRNPGLKIPKEAFEQPQTSSTPPRDLDSKACISIGNQNFEVKADDLEPIMELGRGAYGVVEKMRHVPSGQIMAVKRIRATVNSQEQKRLLMDLDISMRTVDCPFTVTFYGALFREGDVWICMELMDTSLDKFYKQVIDKGQTIPEDILGKIAVSIVKALEHLHSKLSVIHRDVKPSNVLINALGQVKMCDFGISGYLVDSVAKTIDAGCKPYMAPERINPELNQKGYSVKSDIWSLGITMIELAILRFPYDSWGTPFQQLKQVVEEPSPQLPADKFSAEFVDFTSQCLKKNSKERPTYPELMQHPFFTLHESKGTDVASFVKLILGD | – | −1.8184 |
| CRKL (protein, UniProt P46109 1-303, looked up) Crk-like protein: MSSARFDSSDRSAWYMGPVSRQEAQTRLQGQRHGMFLVRDSSTCPGDYVLSVSENSRVSHYIINSLPNRRFKIGDQEFDHLPALLEFYKIHYLDTTTLIEPAPRYPSPPMGSVSAPNLPTAEDNLEYVRTLYDFPGNDAEDLPFKKGEILVIIEKPEEQWWSARNKDGRVGMIPVPYVEKLVRSSPHGKHGNRNSNSYGIPEPAHAYAQPQTTTPLPAVSGSPGAAITPLPSTQNGPVFAKAIQKRVPCAYDKTALALEVGDIVKVTRMNINGQWEGEVNGRKGLFPFTHVKIFDPQNPDENE | – | −1.8003 |
| PILRA (protein, UniProt Q9UKJ1 20-303, looked up) Paired immunoglobulin-like …: QPSGSTGSGPSYLYGVTQPKHLSASMGGSVEIPFSFYYPWELATAPDVRISWRRGHFHRQSFYSTRPPSIHKDYVNRLFLNWTEGQKSGFLRISNLQKQDQSVYFCRVELDTRSSGRQQWQSIEGTKLSITQAVTTTTQRPSSMTTTWRLSSTTTTTGLRVTQGKRRSDSWHISLETAVGVAVAVTVLGIMILGLICLLRWRRRKGQQRTKATTPAREPFQNTEEPYENIRNEGQNTDPKLNPKDDGIVYASLALSSSTSPRAPPSHRPLKSPQNETLYSVLKA | – | −1.2582 |
| IRAK1 (protein, UniProt P51617 1-712, looked up) Interleukin-1 …: MAGGPGPGEPAAPGAQHFLYEVPPWVMCRFYKVMDALEPADWCQFAALIVRDQTELRLCERSGQRTASVLWPWINRNARVADLVHILTHLQLLRARDIITAWHPPAPLPSPGTTAPRPSSIPAPAEAEAWSPRKLPSSASTFLSPAFPGSQTHSGPELGLVPSPASLWPPPPSPAPSSTKPGPESSVSLLQGARPFPFCWPLCEISRGTHNFSEELKIGEGGFGCVYRAVMRNTVYAVKRLKENADLEWTAVKQSFLTEVEQLSRFRHPNIVDFAGYCAQNGFYCLVYGFLPNGSLEDRLHCQTQACPPLSWPQRLDILLGTARAIQFLHQDSPSLIHGDIKSSNVLLDERLTPKLGDFGLARFSRFAGSSPSQSSMVARTQTVRGTLAYLPEEYIKTGRLAVDTDTFSFGVVVLETLAGQRAVKTHGARTKYLKDLVEEEAEEAGVALRSTQSTLQAGLAADAWAAPIAMQIYKKHLDPRPGPCPPELGLGLGQLACCCLHRRAKRRPPMTQVYERLEKLQAVVAGVPGHSEAASCIPPSPQENSYVSSTGRAHSGAAPWQPLAAPSGASAQAAEQLQRGPNQPVESDESLGGLSAALRSWHLTPSCPLDPAPLREAGCPQGDTAGESSWGSGPGSRPTAVEGLALGSSASSSSEPPQIIINPARQKMVQKLALYEDGALDSLQLLSSSSLPGLGLEQDRQGPEESDEFQS | – | −1.2986 |
| STX6 (protein, UniProt O43752 2-255, looked up) Syntaxin-6: SMEDPFFVVKGEVQKAVNTAQGLFQRWTELLQDPSTATREEIDWTTNELRNNLRSIEWDLEDLDETISIVEANPRKFNLDATELSIRKAFITSTRQVVRDMKDQMSTSSVQALAERKNRQALLGDSGSQNWSTGTTDKYGRLDRELQRANSHFIEEQQAQQQLIVEQQDEQLELVSGSIGVLKNMSQRIGGELEEQAVMLEDFSHELESTQSRLDNVMKKLAKVSHMTSDRRQWCAIAILFAVLLVVLILFLVL | – | −1.4715 |
| PRTN3 (protein, UniProt P24158 28-248, looked up) Myeloblastin: IVGGHEAQPHSRPYMASLQMRGNPGSHFCGGTLIHPSFVLTAAHCLRDIPQRLVNVVLGAHNVRTQEPTQQHFSVAQVFLNNYDAENKLNDVLLIQLSSPANLSASVATVQLPQQDQPVPHGTQCLAMGWGRVGAHDPPAQVLQELNVTVVTFFCRPHNICTFVPRRKAGICFGDSGGPLICDGIIQGIDSFVIWGCATRLFPDFFTRVALYVDWIRSTLR | – | −1.7658 |
| IL-5R-alpha (protein, UniProt Q01344 21-420, looked up) Interleukin-5 receptor …: DLLPDEKISLLPPVNFTIKVTGLAQVLLQWKPNPDQEQRNVNLEYQVKINAPKEDDYETRITESKCVTILHKGFSASVRTILQNDHSLLASSWASAELHAPPGSPGTSIVNLTCTTNTTEDNYSRLRSYQVSLHCTWLVGTDAPEDTQYFLYYRYGSWTEECQEYSKDTLGRNIACWFPRTFILSKGRDWLAVLVNGSSKHSAIRPFDQLFALHAIDQINPPLNVTAEIEGTRLSIQWEKPVSAFPIHCFDYEVKIHNTRNGYLQIEKLMTNAFISIIDDLSKYDVQVRAAVSSMCREAGLWSEWSQPIYVGNDEHKPLREWFVIVIMATICFILLILSLICKICHLWIKLFPPIPAPKSNIKDLFVTTNYEKAGSSETEIEVICYIEKPGVETLEDSVF | – | −1.6599 |
| ESM-1 (protein, UniProt Q9NQ30 20-184, looked up) Endothelial cell-specific …: WSNNYAVDCPQHCDSSECKSSPRCKRTVLDDCGCCRVCAAGRGETCYRTVSGMDGMKCGPGLRCQPSNGEDPFGEEFGICKDCPYGTFGMDCRETCNCQSGICDRGTGKCLKFPFFQYSVTKSSNRFVSLTEHDMASGDGNIVREEVVKENAAGSPVMRKWLNPR | – | −1.4178 |
| EGLN1 (protein, UniProt Q9GZT9 2-426, looked up) Egl nine homolog 1: ANDSGGPGGPSPSERDRQYCELCGKMENLLRCSRCRSSFYCCKEHQRQDWKKHKLVCQGSEGALGHGVGPHQHSGPAPPAAVPPPRAGAREPRKAAARRDNASGDAAKGKVKAKPPADPAAAASPCRAAAGGQGSAVAAEAEPGKEEPPARSSLFQEKANLYPPSNTPGDALSPGGGLRPNGQTKPLPALKLALEYIVPCMNKHGICVVDDFLGKETGQQIGDEVRALHDTGKFTDGQLVSQKSDSSKDIRGDKITWIEGKEPGCETIGLLMSSMDDLIRHCNGKLGSYKINGRTKAMVACYPGNGTGYVRHVDNPNGDGRCVTCIYYLNKDWDAKVSGGILRIFPEGKAQFADIEPKFDRLLFFWSDRRNPHEVQPAYATRYAITVWYFDADERARAKVKYLTGEKGVRVELNKPSDSVGKDVF | – | −1.3184 |
